# From the supplement of paper PMC9112550, “Optimization of the antimicrobial peptide Bac7 by deep mutational scanning” (BMC Biology, 2022)
# Test system: Escherichia coli TOP10
# Assay: shrunken log2 fold change of peptide-encoding DNA abundance (4.5 h post-induction vs induction); higher = less antimicrobial activity (less host growth inhibition)
# Settings: time post-induction: 4.5 h; library: site-saturation at positions 5, 18, 19, 20
# 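Also: peptides expressed intracellularly from a pBAD plasmid library in pooled LB shake-flask culture, induced with 0.3% L-arabinose, DNA abundance read by NGS, three biological replicates, DESeq2 with apeglm shrinkage.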
row,Sequence,shrunken log2 fold change
1,RRIRLRPPRLPRPRPRPWGTPRP,-0.169
2,RRIRTRPPRLPRPRPRPEHMPRP,-0.0375
3,RRIRDRPPRLPRPRPRPPQNPRP,0.409
4,RRIRGRPPRLPRPRPRPIPRPRP,0.519
5,RRIRIRPPRLPRPRPRPHCQPRP,-0.173
6,RRIRDRPPRLPRPRPRPEHSPRP,-0.027
7,RRIRKRPPRLPRPRPRPKVDPRP,0.00437
8,RRIRNRPPRLPRPRPRPVTFPRP,-0.356
9,RRIRYRPPRLPRPRPRPTSCPRP,-0.331
10,RRIRLRPPRLPRPRPRPVDGPRP,0.0489
11,RRIRMRPPRLPRPRPRPGTHPRP,0.056
12,RRIRSRPPRLPRPRPRPNCFPRP,0.0876
13,RRIRPRPPRLPRPRPRPFGCPRP,-0.144
14,RRIRTRPPRLPRPRPRPWQMPRP,-0.0135
15,RRIRDRPPRLPRPRPRPVGPPRP,-0.286
16,RRIRNRPPRLPRPRPRPPIDPRP,-0.306
17,RRIRHRPPRLPRPRPRPVCQPRP,-0.147
18,RRIRQRPPRLPRPRPRPNRRPRP,0.103
19,RRIRIRPPRLPRPRPRPKYAPRP,-0.118
20,RRIRERPPRLPRPRPRPGYPPRP,-0.216
21,RRIRFRPPRLPRPRPRPQKRPRP,0.297
22,RRIRNRPPRLPRPRPRPKADPRP,-0.0273
23,RRIRRRPPRLPRPRPRPEFPPRP,0.154
24,RRIRRRPPRLPRPRPRPFMVPRP,-0.242
25,RRIRHRPPRLPRPRPRPSNWPRP,-0.106

row,Sequence,shrunken log2 fold change
1,RRIRKRPPRLPRPRPRPIVDPRP,0.234
2,RRIRLRPPRLPRPRPRPWQPPRP,-0.0454
3,RRIRRRPPRLPRPRPRPSNDPRP,-0.162
4,RRIRCRPPRLPRPRPRPSVAPRP,-0.276
5,RRIRYRPPRLPRPRPRPEPMPRP,-0.0988
6,RRIRSRPPRLPRPRPRPGMSPRP,-0.0403
7,RRIRPRPPRLPRPRPRPADDPRP,0.118
8,RRIRVRPPRLPRPRPRPWAAPRP,0.049
9,RRIRWRPPRLPRPRPRPEWYPRP,0.0654
10,RRIRERPPRLPRPRPRPECCPRP,0.066
11,RRIRMRPPRLPRPRPRPWSWPRP,-0.00716
12,RRIRCRPPRLPRPRPRPMEKPRP,0.0833
13,RRIRFRPPRLPRPRPRPHPFPRP,-0.105
14,RRIRPRPPRLPRPRPRPGIDPRP,-0.0536
15,RRIRHRPPRLPRPRPRPKEHPRP,0.0812
16,RRIRSRPPRLPRPRPRPGTWPRP,0.358
17,RRIRRRPPRLPRPRPRPCMCPRP,-0.382
18,RRIRQRPPRLPRPRPRPTCLPRP,-0.108
19,RRIRDRPPRLPRPRPRPIYTPRP,-0.105
20,RRIRIRPPRLPRPRPRPWGSPRP,-0.488
21,RRIRIRPPRLPRPRPRPTGCPRP,-0.0215
22,RRIRKRPPRLPRPRPRPRGYPRP,0.166
23,RRIRIRPPRLPRPRPRPMWMPRP,-0.0849
24,RRIRNRPPRLPRPRPRPPYGPRP,-0.0471
25,RRIRPRPPRLPRPRPRPFNEPRP,-0.347

row,Sequence,shrunken log2 fold change
1,RRIRDRPPRLPRPRPRPEDNPRP,1.31
2,RRIRERPPRLPRPRPRPEEKPRP,-0.0137
3,RRIRIRPPRLPRPRPRPDAWPRP,0.32
4,RRIRLRPPRLPRPRPRPWSKPRP,-0.547
5,RRIRHRPPRLPRPRPRPEHGPRP,-0.00141
6,RRIRDRPPRLPRPRPRPTVKPRP,-0.043
7,RRIRFRPPRLPRPRPRPLWDPRP,-0.119
8,RRIRFRPPRLPRPRPRPNDAPRP,0.186
9,RRIRVRPPRLPRPRPRPRDVPRP,-0.113
10,RRIRMRPPRLPRPRPRPRSHPRP,0.407
11,RRIRARPPRLPRPRPRPCFVPRP,-0.0979
12,RRIRYRPPRLPRPRPRPKHIPRP,-0.66
13,RRIRHRPPRLPRPRPRPDLSPRP,-0.000678
14,RRIRPRPPRLPRPRPRPRVWPRP,0.482
15,RRIRQRPPRLPRPRPRPLVNPRP,-0.0122
16,RRIRVRPPRLPRPRPRPTKDPRP,-0.303
17,RRIRARPPRLPRPRPRPPWQPRP,0.675
18,RRIRHRPPRLPRPRPRPVTGPRP,-0.213
19,RRIRKRPPRLPRPRPRPQFGPRP,0.0962
20,RRIRWRPPRLPRPRPRPLNIPRP,-0.211
21,RRIRGRPPRLPRPRPRPKWHPRP,0.542
22,RRIRLRPPRLPRPRPRPCESPRP,0.0102
23,RRIRPRPPRLPRPRPRPDPCPRP,-0.0908
24,RRIRARPPRLPRPRPRPHTIPRP,-0.734
25,RRIRCRPPRLPRPRPRPKAVPRP,0.564

row,Sequence,shrunken log2 fold change
1,RRIRERPPRLPRPRPRPKNSPRP,-0.52
2,RRIRWRPPRLPRPRPRPPDFPRP,-0.087
3,RRIRLRPPRLPRPRPRPKGAPRP,0.379
4,RRIRRRPPRLPRPRPRPIELPRP,-0.192
5,RRIRQRPPRLPRPRPRPFAFPRP,0.087
6,RRIRCRPPRLPRPRPRPMQFPRP,-0.113
7,RRIRDRPPRLPRPRPRPNRWPRP,0.0049
8,RRIRNRPPRLPRPRPRPLRTPRP,0.717
9,RRIRIRPPRLPRPRPRPDREPRP,0.00825
10,RRIRTRPPRLPRPRPRPPFWPRP,0.379
11,RRIRHRPPRLPRPRPRPTNIPRP,-0.135
12,RRIRIRPPRLPRPRPRPMIHPRP,-0.363
13,RRIRCRPPRLPRPRPRPRGRPRP,0.46
14,RRIRRRPPRLPRPRPRPDIDPRP,0.0367
15,RRIRKRPPRLPRPRPRPWYFPRP,0.0699
16,RRIRGRPPRLPRPRPRPWYGPRP,-0.242
17,RRIRRRPPRLPRPRPRPDVSPRP,-0.0463
18,RRIRLRPPRLPRPRPRPMMYPRP,-0.0922
19,RRIRCRPPRLPRPRPRPSQSPRP,-0.221
20,RRIRTRPPRLPRPRPRPPVQPRP,0.0423
21,RRIRVRPPRLPRPRPRPWTRPRP,-0.0486
22,RRIRIRPPRLPRPRPRPITMPRP,-1.08
23,RRIRGRPPRLPRPRPRPPFFPRP,0.851
24,RRIRPRPPRLPRPRPRPQTVPRP,0.184
25,RRIRERPPRLPRPRPRPMLVPRP,-0.225

row,Sequence,shrunken log2 fold change
1,RRIRDRPPRLPRPRPRPLAIPRP,0.0447
2,RRIRDRPPRLPRPRPRPAEYPRP,-0.491
3,RRIRIRPPRLPRPRPRPGWIPRP,-0.14
4,RRIRGRPPRLPRPRPRPHIEPRP,1.15
5,RRIRNRPPRLPRPRPRPSITPRP,-0.656
6,RRIRPRPPRLPRPRPRPCYLPRP,-0.958
7,RRIRSRPPRLPRPRPRPGPIPRP,0.298
8,RRIRCRPPRLPRPRPRPSYDPRP,-0.428
9,RRIRHRPPRLPRPRPRPRFRPRP,-0.105
10,RRIRDRPPRLPRPRPRPGDYPRP,0.0583
11,RRIRNRPPRLPRPRPRPKANPRP,0.177
12,RRIRFRPPRLPRPRPRPYKKPRP,-0.415
13,RRIRCRPPRLPRPRPRPFSNPRP,-0.117
14,RRIRNRPPRLPRPRPRPERCPRP,0.0334
15,RRIRWRPPRLPRPRPRPHSHPRP,-3.83e-05
16,RRIRGRPPRLPRPRPRPRGNPRP,0.995
17,RRIRQRPPRLPRPRPRPDTRPRP,0.00157
18,RRIRLRPPRLPRPRPRPWWWPRP,-0.00192
19,RRIRPRPPRLPRPRPRPVETPRP,-0.158
20,RRIRWRPPRLPRPRPRPRFVPRP,0.139
21,RRIRRRPPRLPRPRPRPRAKPRP,0.203
22,RRIRIRPPRLPRPRPRPDPFPRP,0.261
23,RRIRERPPRLPRPRPRPGFGPRP,0.0959
24,RRIRQRPPRLPRPRPRPTWTPRP,-0.0772
25,RRIRRRPPRLPRPRPRPSWYPRP,0.363

row,Sequence,shrunken log2 fold change
1,RRIRWRPPRLPRPRPRPFCMPRP,-0.218
2,RRIRPRPPRLPRPRPRPVVVPRP,-0.0997
3,RRIRMRPPRLPRPRPRPATNPRP,0.499
4,RRIRVRPPRLPRPRPRPNKTPRP,0.172
5,RRIRKRPPRLPRPRPRPYGYPRP,-0.0282
6,RRIRIRPPRLPRPRPRPMGPPRP,0.0284
7,RRIRIRPPRLPRPRPRPTCIPRP,-0.193
8,RRIRPRPPRLPRPRPRPQFCPRP,-0.153
9,RRIRSRPPRLPRPRPRPDVVPRP,-0.448
10,RRIRSRPPRLPRPRPRPYYMPRP,-0.622
11,RRIRSRPPRLPRPRPRPICAPRP,0.47
12,RRIRCRPPRLPRPRPRPFRDPRP,-0.0732
13,RRIRYRPPRLPRPRPRPFHPPRP,-0.146
14,RRIRRRPPRLPRPRPRPVRCPRP,0.424
15,RRIRTRPPRLPRPRPRPADNPRP,-0.294
16,RRIRSRPPRLPRPRPRPYGYPRP,-0.00281
17,RRIRGRPPRLPRPRPRPDVCPRP,0.181
18,RRIRDRPPRLPRPRPRPPILPRP,-0.147
19,RRIRTRPPRLPRPRPRPYNFPRP,0.0438
20,RRIRCRPPRLPRPRPRPNNWPRP,-0.362
21,RRIRSRPPRLPRPRPRPAWVPRP,0.441
22,RRIRKRPPRLPRPRPRPSEMPRP,-0.17
23,RRIRDRPPRLPRPRPRPYETPRP,-0.198
24,RRIRPRPPRLPRPRPRPTCAPRP,0.268
25,RRIRTRPPRLPRPRPRPWIIPRP,-0.228
